Source: patent US20230295310A1 (ABCELLERA BIOLOGICS, published 2023)
Where a chain is given by its changes, count along the chain named.

B1: mAb 228 (antibody, V domains shown)
VH: EVQLLESGGGLVQPGGSLRLSCAASGFTFSNYAMNWVRQAPGKGLEWVSTISGSGGGKYYADSVKGRFTISRDNSKNTLYLHMNSLRAEDTAVYYCAKDPVQDRYYFYYYYMDVWGKGTTVTVSS
VL: EIVLTQSPDFQSVTPKEKVTITCRASQSIGSSLHWYQQKPDQSPKLLIKYASQSISGVPSRFSGSGSGTDFTLTINSLEAEDAAAYYCHQSSSLPHTFGQGTKLEIK
notes: VH/VL only
B2: mAb 229 (antibody, V domains shown)
VH: QEQLVESGGGVVQPGRSLRLSCAASGFTFSSYGMHWVRQAPGKGLEWVAIIYYNGKKKDYADSVKGRFTISRDNSKNTLYLQMNSLRAEDTAVYYCARGLGYNWFDPWGQGTLVTVSS
VL: B1 VL with I55F, A85T, H96Y
notes: VH/VL only
B3: mAb 256 (antibody, V domains shown)
VH: QVQLQQSGPGLVKPSQTLSLTCAISGDSVSSNYASWNWIRQSPSRGLEWLGRTYYRSKWYNDFAVSVKSRVTINADTSKNQFSLHLSSVTPEDTAIYFCAREANGRGYFYYMDVWGKGTTVTVSS
VL: B1 VL with D41V, D70V, Y87F, S93G, L94S, Q100G, L104V
notes: VH/VL only
B4: mAb 240 (antibody, V domains shown)
VH: QGKLVESGGGVVQPGRSLRLSCVASGFTFSGYGMHWVRQAPNKGLEWVAIIYYDGKNKYYADSVKGRFTISRDNSKNTLYLQLNSLRAEDTAVYYCVRGPGYNWFDPWGQGTLVTVSS
VL: B1 VL with S28N, Y50H, I55F, A85T, H96Y
notes: VH/VL only
B5: mAb 258 (antibody, V domains shown)
VH: EVQLLESGGGLVQPGGSLRLSCAASGFTFSNYAMNWVRQAPGKGLEWVSVISNSGGTRLYVDSVKGRFTISRDNSKNTLYLQMSSLRAADTAVYYCAKDAAAALYYYYFYYMDVWGKGTTVTVSS
VL: B1 VL with I55F, A85T, H96Y
notes: VH/VL only
B6: mAb 248 (antibody, V domains shown)
VH: B4 VH with G2V, N42G, A61V, P107H, S117A
VL: B1 VL with I55F, A85T, H96Y
notes: VH/VL only
B7: mAb 257 (antibody, V domains shown)
VH: B3 VH with K68R
VL: B1 VL with D70V, Y87F, S93G, L94S, Q100G, L104V
notes: VH/VL only; the printed VH holds a letter U
B8: mAb 266 (antibody, V domains shown)
VH: B3 VH with N61I, V71L, S87R
VL: B1 VL with D70V, Y87F, S93G, L94S, Q100G, L104V
notes: VH/VL only
B9: mAb 255 (antibody, V domains shown)
VH: B3 VH with L4V, N32K, V71I
VL: B1 VL with D70V, Y87F, S93G, L94S, Q100G, L104V
notes: VH/VL only
B10: mAb 267 (antibody, V domains shown)
VH: B3 VH with V29I, V71I, T72I, A75P, K79R, S87N, F98Y
VL: B1 VL with S65R, Y87F, S93G, L94S, Q100G, L104V
notes: VH/VL only
B11: mAb 230 (antibody, V domains shown)
VH: B1 VH with N31S, N35S, T50S, G57S, K58R, H82Q
VL: B1 VL
notes: VH/VL only
B12: mAb 250 (antibody, V domains shown)
VH: QVQLVESGGGVVQPGRSLRLSCAASGFTFSTYGMHWVRQAPGKGLEWVAVLWSDGRSKYYADSVQGRFTISRDNSKNTLFLQMSSLRAEDTAVYYCAREPYYDFWSGYYTGYMDVWGKGTTVTVSS
VL: DIQMTQSPSSLSASVGDRVTITCRASQGIRNDLGWYQQKPGKAPKRLIYAASSLQGGVPSRFSGSGSGTEFTLTISSLQPEDFATYYCLQHNSYPRTFGQGTKVEIK
notes: VH/VL only
B13: mAb 237 (antibody, V domains shown)
VH: EVQLLESGGDLVQPGGSLRLTCAASGFTFRSYAMNWVRQAPGKGLEWVSTISSRGDTTNYADSVKGRFTISRDTSKNTLYLQMDNLRADDTAVYYCSKMFSYYYYYMDVWGKGTTVTVSS
VL: SYELTQPLSVSVALGQTARITCGGNNIGSKDVHWYQQKPGQAPVLVIYRDSNRPSGIPERFSGSNSGNTATLTISRAQAGDEADYYCQVWDSRTAVFGGGTQLTAL
notes: VH/VL only
B14: mAb 251 (antibody, V domains shown)
VH: EVQILESGGGLVQPGGSLRLSCVASGFTFRSYVMSWVRRAPGRGLEWVSGISASGGNTYYADSVKGRFTISRDNSKNTLFLQMNGLRAEDTAVYYCAKLFSYYYYFMDVWGKGTTVTVSS
VL: B13 VL with R76G, S92R
notes: VH/VL only
B15: mAb 238 (antibody, V domains shown)
VH: B13 VH
VL: B13 VL with R93S
notes: VH/VL only
B16: mAb 252 (antibody, V domains shown)
VH: B14 VH with A53T
VL: B13 VL with R76G, S92R
notes: VH/VL only
B17: mAb 213 (antibody, V domains shown)
VH: QEQLVESGGGVVQPGGSLRLSCAASGFTFSGYGMHWVRQAPGKGLEWVAIIWYNGRKTYYAESVKGRFTISRDNSKNTLSLQMNSLRVEDTAVYYCTTGKGYNWFDPWGQGTLVTVSS
VL: EIVMTQSPATLSVSPGERATLSCRASQSVSSNLAWYQQKPGQAPRLLIYGASTRATGIPARFSGSGSGTEFTLTISSLQSEDFAVYYCQQFNAWPLTFGGGTKMEIK
notes: VH/VL only
B18: mAb 225 (antibody, V domains shown)
VH: B17 VH with T28K, S85R, T98A, K100Q
VL: B17 VL
notes: VH/VL only
B19: mAb 219 (antibody, V domains shown)
VH: B17 VH with T28M, A61T, T98A, K100Q
VL: B17 VL
notes: VH/VL only
B20: mAb 220 (antibody, V domains shown)
VH: B17 VH with A23V
VL: B17 VL
notes: VH/VL only

How the values were obtained:
[1] = target: T1, human CD3 expressed on cells (Jurkat cells; human primary T cells) (human, UniProt P07766 23-207; P04234 22-171; P09693 23-182); test: flow cytometry, 25 nM, Jurkat cells
T1 construct: whole, on cells
T1 sequence (P07766 23-207, chain 1 of 3): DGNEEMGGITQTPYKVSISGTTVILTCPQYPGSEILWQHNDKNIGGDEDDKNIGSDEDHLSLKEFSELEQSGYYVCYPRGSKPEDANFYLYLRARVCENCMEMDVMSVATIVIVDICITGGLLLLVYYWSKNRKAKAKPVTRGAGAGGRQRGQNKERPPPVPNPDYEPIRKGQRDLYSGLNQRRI
T1 sequence (P04234 22-171, chain 2 of 3): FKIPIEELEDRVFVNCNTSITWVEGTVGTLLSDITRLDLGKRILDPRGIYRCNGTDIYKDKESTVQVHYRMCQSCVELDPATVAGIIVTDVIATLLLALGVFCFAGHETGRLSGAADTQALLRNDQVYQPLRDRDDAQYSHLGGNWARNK
T1 sequence (P09693 23-182, chain 3 of 3): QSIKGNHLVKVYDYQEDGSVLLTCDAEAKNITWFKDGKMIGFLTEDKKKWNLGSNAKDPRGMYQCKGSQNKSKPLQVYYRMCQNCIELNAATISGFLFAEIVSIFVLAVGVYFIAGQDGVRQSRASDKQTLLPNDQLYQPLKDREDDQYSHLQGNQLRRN
Summary of the method: (§1)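 Binding reported as fold over isotype: median fluorescence intensity divided by isotype control, with ≥10 scored positive. Cells were exposed to 25 nM antibody in PBS/2% FBS, 30 min, 4 °C, before flow cytometric read-out.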

[2] = target: T2, cynomolgus monkey CD3 expressed on cyno primary T cells (cynomolgus monkey, UniProt Q95LI5 22-198; Q95LI8 22-171; Q95LI7 23-181); test: flow cytometry, cyno primary T cells
T2 construct: whole, on cells; CD3 complex on purified cynomolgus monkey CD3 pan T cells; also called cyno CD3
T2 sequence (Q95LI5 22-198, chain 1 of 3): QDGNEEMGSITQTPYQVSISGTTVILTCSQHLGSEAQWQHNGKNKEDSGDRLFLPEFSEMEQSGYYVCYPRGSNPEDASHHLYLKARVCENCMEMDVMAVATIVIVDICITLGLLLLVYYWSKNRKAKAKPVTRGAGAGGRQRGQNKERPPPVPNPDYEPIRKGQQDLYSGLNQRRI
T2 sequence (Q95LI8 22-171, chain 2 of 3): as the sequence (P04234 22-171, chain 2 of 3) above, with I5V, N15K, I20V, S32T, D33N, I34N, T64A, S74N, V83L, H141R counted along it
T2 sequence (Q95LI7 23-181, chain 3 of 3): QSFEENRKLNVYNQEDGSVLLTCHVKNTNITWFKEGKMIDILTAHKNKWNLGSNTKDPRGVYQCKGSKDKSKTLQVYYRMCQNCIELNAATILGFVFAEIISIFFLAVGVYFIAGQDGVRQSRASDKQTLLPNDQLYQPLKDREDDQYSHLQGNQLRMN
Summary of the method: as §1

[3] = target: T1, human CD3 expressed on cells (Jurkat …); test: flow cytometry, 25 nM, human primary T cells
Summary of the method: as §1

Row | Binder | Binding (FOI) [1] | binding result [2] | Binding (FOI) [3]
1 | B1 | 159 FOI | no binding (tested: FOI <10 (FOI >=10 = positive); 25 nM) | 105 FOI
2 | B2 | 180 FOI | no binding (tested: FOI <10 (FOI >=10 = positive); 25 nM) | 250 FOI
3 | B3 | 61.5 FOI | no binding (tested: FOI <10 (FOI >=10 = positive); 25 nM) | 73 FOI
4 | B4 | 177 FOI | no binding (tested: FOI <10 (FOI >=10 = positive); 25 nM) | 216 FOI
5 | B5 | 147 FOI | no binding (tested: FOI <10 (FOI >=10 = positive); 25 nM) | 113 FOI
6 | B6 | 174 FOI | no binding (tested: FOI <10 (FOI >=10 = positive); 25 nM) | 203 FOI
7 | B7 | 62.3 FOI | no binding (tested: FOI <10 (FOI >=10 = positive); 25 nM) | 77.7 FOI
8 | B8 | 85 FOI | no binding (tested: FOI <10 (FOI >=10 = positive); 25 nM) | 71.9 FOI
9 | B9 | 162 FOI | no binding (tested: FOI <10 (FOI >=10 = positive); 25 nM) | 198 FOI
10 | B10 | 61.3 FOI | no binding (tested: FOI <10 (FOI >=10 = positive); 25 nM) | 88.8 FOI
11 | B11 | 141 FOI | no binding (tested: FOI <10 (FOI >=10 = positive); 25 nM) | 55.3 FOI
12 | B12 | 125 FOI | no binding (tested: FOI <10 (FOI >=10 = positive); 25 nM) | 109 FOI
13 | B13 | 217 FOI | no binding (tested: FOI <10 (FOI >=10 = positive); 25 nM) | 293 FOI
14 | B14 | 215 FOI | no binding (tested: FOI <10 (FOI >=10 = positive); 25 nM) | 297 FOI
15 | B15 | 185 FOI | no binding (tested: FOI <10 (FOI >=10 = positive); 25 nM) | 266 FOI
16 | B16 | 184 FOI | no binding (tested: FOI <10 (FOI >=10 = positive); 25 nM) | 270 FOI
17 | B17 | 192 FOI | no binding (tested: FOI <10 (FOI >=10 = positive); 25 nM) | 248 FOI
18 | B18 | 210 FOI | no binding (tested: FOI <10 (FOI >=10 = positive); 25 nM) | 267 FOI
19 | B19 | 175 FOI | no binding (tested: FOI <10 (FOI >=10 = positive); 25 nM) | 245 FOI
20 | B20 | 181 FOI | no binding (tested: FOI <10 (FOI >=10 = positive); 25 nM) | 243 FOI
